The data set is described as follows: protein stability index of a GFP-peptide fusion (GPS, HEK-293T) (PSI 1-6); higher = more stable. The note with it: c terminus: a fixed tail appended.

± gives the standard deviation.
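Also: 24-mer peptide tiles fused after GFP, lentivirally expressed, FACS-sorted into six equal bins by GFP/DsRed ratio, decoded by Illumina sequencing, PSI is the read-weighted mean bin number.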

For the sequence AAEQAERSQSSIVPEEEQAANKGE [SMARCE1], the protein stability index was 5.51 ± 0.3 (treatment: DMSO) and 5.54 ± 0.19 (treatment: MLN4924 1 uM, 8 h).
For the sequence AAGMRFPLPEAIDPDVGVNSLQSY [PCDHGA10], the protein stability index (treatment: DMSO) came to 3.9 ± 0.2 and the protein stability index (treatment: MLN4924 1 uM, 8 h) is 4.12 ± 0.31.
For AAKRMRLEIYQSSQDEPIALDKQH [NOL4L], in that order: 3.59 ± 0.27 and 3.88 ± 0.25.
For AALPLAAEETANLPPSPPPSPASE [MAP2], in that order: 5.27 ± 0.13 and 5.09 ± 0.18.
For AAQPMQPLPESLASLHPSVSPGSP [PLAGL1], in that order: 5.2 ± 0.12 and 5.17 ± 0.29.
On to AARISNKGKFSTDTKGKPTSRTQV [ZC2HC1A], for which the protein stability index (treatment: DMSO) is 3.91 ± 0.38 and the protein stability index (treatment: MLN4924 1 uM, 8 h) stood at 4.19 ± 0.39.
In the case of ADGLLQLGPLGSTAFLPDSKCLVD [GALNT9], the protein stability index by setting is: (treatment: DMSO) 3.97 ± 0.16; (treatment: MLN4924 1 uM, 8 h) 4.09 ± 0.19.
On the same counts, the results for ADKMTAEEVDQMFQFASIDVAGNL [MYL5] are 4.35 ± 0.41 and 4.47 ± 0.2.
For AEDLRMLDASGEKMNGSHRDQGSS [IKZF1], in that order: 5.18 ± 0.43 and 5.34 ± 0.23.
On to AEEESSGGEEEDEDENIEVVYSKA [EIF5], for which the protein stability index is, setting by setting: (treatment: DMSO) 5.22 ± 0.17; (treatment: MLN4924 1 uM, 8 h) 5.25 ± 0.16.
On the same counts, the results for AEEKERRRKEYDALKAAKREQEKK [LRRC59] are 5.31 ± 0.26 and 5.39 ± 0.12.
With AEHWTKEHCGAVCFVKDNPQKSYF [WAS], the protein stability index is, setting by setting: (treatment: DMSO) 2.92 ± 0.39; (treatment: MLN4924 1 uM, 8 h) 2.98 ± 0.23.
For AEKRKRQAEIENKRRQLEDERRQL [PALM], in that order: 4.68 ± 0.5 and 4.94 ± 0.32.
On the same counts, the results for AELNKEVSTNTAMIQTSKTEITEL [KRT13] are 5.26 ± 0.14 and 5.18 ± 0.079.
As to AERVTLADFKGVLQRPSYKFFFKS [DVL3], the protein stability index was 2.29 ± 0.3 (treatment: DMSO) and 2.63 ± 0.44 (treatment: MLN4924 1 uM, 8 h).
For the sequence AGADLPPPKIRLKPHRLGDSEHEP [PWWP2B], the protein stability index runs as follows: (treatment: DMSO) 4.83 ± 0.23; (treatment: MLN4924 1 uM, 8 h) 4.91 ± 0.28.
As for AGNRNSMVIHIPEEPRPSRPRYKA [KCNK9], the protein stability index is 4.14 ± 0.35 (treatment: DMSO) and 4.24 ± 0.13 (treatment: MLN4924 1 uM, 8 h).
On the same counts, the results for AGPNGTLFVADAYKGLFEVNPWKR [APMAP] are 2.39 ± 0.28 and 2.72 ± 0.31.
On the same counts, the results for AIIISTIVLDRALHIPMYFFLAIL [OR10K2] are 3.04 ± 0.47 and 3.04 ± 0.33.
For the sequence AKALNRPPTYPTKYFGCELGAQTQ [EIF5], the protein stability index by setting is: (treatment: DMSO) 2.71 ± 0.23; (treatment: MLN4924 1 uM, 8 h) 3.15 ± 0.13.
On the same counts, the results for AKEMSVPFYTSRIDEVLLHQDVDL [GFOD1] are 3.74 ± 0.59 and 3.88 ± 0.35.
On the same counts, the results for AKRNRLAPAHVDEQVFLYENARSG [ZBED1] are 4.3 ± 0.59 and 4.43 ± 0.25.
For ALADVEVKYIVERTMLDFPQHVSS [NLN], in that order: 2.38 ± 0.36 and 2.39 ± 0.16.
As for ALGGLQSWRVGVVRVRQDSGAEGH [TRIM35], the protein stability index is, setting by setting: (treatment: DMSO) 2.95 ± 0.46; (treatment: MLN4924 1 uM, 8 h) 3.31 ± 0.38.
Sequence ALKLIIRLFLVEDLVDSLKLAVFM [RTN3] came in with a protein stability index (treatment: DMSO) of 3.69 ± 0.17.
With ALLADEERCLSCILAQQPDRLRDE [TRADD], the protein stability index came out at 4.28 ± 0.2 (treatment: DMSO) and 4.3 ± 0.12 (treatment: MLN4924 1 uM, 8 h).
For ALVFGVNTFIALALQTLLTLIVVD [SLC19A2], the protein stability index is, setting by setting: (treatment: DMSO) 3.33 ± 0.55; (treatment: MLN4924 1 uM, 8 h) 3.37 ± 0.58.
On the same counts, the results for ALVGCVISDNPERYSTNLSNHVDD [EDNRA] are 3.94 ± 0.44 and 4.16 ± 0.16.
For AMSTLGVIEAIAQITVKALPKPPG [PTPRD], in that order: 2.21 ± 0.17 and 2.16 ± 0.26.
Turning to ANAHTYHINSISVNSDYETYMSAD [PPP2R2B], the protein stability index worked out at 3.81 ± 0.24 (treatment: DMSO) and 3.8 ± 0.22 (treatment: MLN4924 1 uM, 8 h).
As to APAKYTVFDAEGYVKPQSCIDIVI [MOSPD3], the protein stability index reads like this: (treatment: DMSO) 2.83 ± 0.84; (treatment: MLN4924 1 uM, 8 h) 2.5 ± 1.3.
Regarding APFGRISDARVVKDMATGKSKGYG [TIA1], the protein stability index is, setting by setting: (treatment: DMSO) 4.47 ± 0.17; (treatment: MLN4924 1 uM, 8 h) 4.35 ± 0.18.
On the same counts, the results for APRGKNGFTPLHMAVDKDTTNVGR [FEM1A] are 4.37 ± 0.19 and 4.44 ± 0.18.
For the sequence AQFRLLSEVEELNMSLTALREKLL [TEKT4], the protein stability index turned out to be 2.23 ± 0.43 (treatment: DMSO) and 2.62 ± 0.45 (treatment: MLN4924 1 uM, 8 h).
For AQHSLMDGYCMFNHVAVAARYAQQ [HDAC6], the protein stability index reads like this: (treatment: DMSO) 2.1 ± 0.25; (treatment: MLN4924 1 uM, 8 h) 1.92 ± 0.39.
With AQRHRELYLRVELSDVQNPAISIT [HACD3], the protein stability index worked out at 2.16 ± 0.34 (treatment: DMSO) and 2.18 ± 0.15 (treatment: MLN4924 1 uM, 8 h).
As to ARIAIRGTIKKIIHQETVSKNGNG [PCMTD2], the protein stability index by setting is: (treatment: DMSO) 3.01 ± 0.22; (treatment: MLN4924 1 uM, 8 h) 3.21 ± 0.27.
